The test addresses Calmodulin (CaM), wild type (UniProt P0DP23 1-149). As to the kind of experiment: crystal structure.

B1: NaV1.6 IQ motif (1893-1914), the part of the fusion CaM-(Gly)5-NaV1.6 IQ (domain or fragment)
chain: EEVSAVVLQRAYRGHLARRGFI
For the molecule B1, the binding result was “binds”.

The values are drawn from article PMC3743062 (Scientific Reports, 2013).
